# Measured values taken from publication PMC7699706, “Responses of DNA Mismatch Repair Proteins to a Stable G-Quadruplex Embedded into a DNA Duplex Structure” (International Journal of Molecular Sciences, 2020).
# B1: ecMutS (Escherichia coli K-12) (protein)
# chain: MSAIENFDAHTPMMQQYLRLKAQHPEILLFYRMGDFYELFYDDAKRASQLLDISLTKRGASAGEPIPMAGIPYHAVENYLAKLVNQGESVAICEQIGDPATSKGPVERKVVRIVTPGTISDEALLQERQDNLLAAIWQDSKGFGYATLDISSGRFRLSEPADRETMAAELQRTNPAELLYAEDFAEMSLIEGRRGLRRRPLWEFEIDTARQQLNLQFGTRDLVGFGVENAPRGLCAAGCLLQYAKDTQRTTLPHIRSITMEREQDSIIMDAATRRNLEITQNLAGGAENTLASVLDCTVTPMGSRMLKRWLHMPVRDTRVLLERQQTIGALQDFTAGLQPVLRQVGDLERILARLALRTARPRDLARMRHAFQQLPELRAQLETVDSAPVQALREKMGEFAELRDLLERAIIDTPPVLVRDGGVIASGYNEELDEWRALADGATDYLERLEVRERERTGLDTLKVGFNAVHGYYIQISRGQSHLAPINYMRRQTLKNAERYIIPELKEYEDKVLTSKGKALALEKQLYEELFDLLLPHLEALQQSASALAELDVLVNLAERAYTLNYTCPTFIDKPGIRITEGRHPVVEQVLNEPFIANPLNLSPQRRMLIITGPNMGGKSTYMRQTALIALMAYIGSYVPAQKVEIGPIDRIFTRVGAADDLASGRSTFMVEMTETANILHNATEYSLVLMDEIGRGTSTYDGLSLAWACAENLANKIKALTLFATHYFELTQLPEKMEGVANVHLDALEHGDTIAFMHSVQDGAASKSYGLAVAALAGVPKEVIKRARQKLRELESISPNAAATQVDGTQMSLLSVPEETSPAVEALENLDPDSLTPRQALEWIYRLKSLV
# notes: recombinant, N-terminal His6 tag, expressed in E. coli BL21(DE3), Ni-NTA and size exclusion; homodimer
# Substrate: Nc1ncnc2c1ncn2[C@@H]1O[C@H](COP(=O)(O)OP(=O)(O)OP(=O)(O)O)[C@@H](O)[C@H]1O
# Experiment: malachite green phosphate release assay, Michaelis-Menten fit
# Assay type: biochemical, Escherichia coli
# Conditions: no DNA, 5 mM MgCl2, 120 mM KCl, 10 mM HEPES-KOH pH 7.5, 37 °C, 250 nM MutS dimer
# From the text: malachite green phosphate release assay, Michaelis-Menten fit on ecMutS
protein,measurement,value
B1,Km,35 ± 15 µM
same,kcat,0.117 ± 0.0167 s⁻¹
